Experimental data from PMC12793716, “Linked dimers of the AAA+ ATPase Msp1 reveal energetic demands and mechanistic plasticity for substrate extraction from lipid bilayers” (Febs Letters, 2025).
Numbering of substitutions follows the chain as printed. Names and notes keep the numbering of the source.

B1: His6‐TEV‐Msp1 E193Q Monomer (enzyme, UniProt P28737 33-362, looked up)
chain: DVESGPLSGKSRESKAKQSLQWEKLVKRSPALAEVTLDAYERTILSSIVTPDEINITFQDIGGLDPLISDLHESVIYPLMMPEVYSNSPLLQAPSGVLLYGPPGCGKTMLAKALAKESGANFISIRMSSIMDKWYGESNKIVDAMFSLANKLQPCIIFIDQIDSFLRERSSTDHEVTATLKAEFMTLWDGLLNNGRVMIIGATNRINDIDDAFLRRLPKRFLVSLPGSDQRYKILSVLLKDTKLDEDEFDLQLIADNTKGFSGSDLKELCREAALDAAKEYIKQKRQLIDSGTIDVNDTSSLKIRPLKTKDFTKKLRMDATSTLSSQPLD
notes: Msp1 with the Walker B mutation E193Q, soluble construct: deletion of the first 32 residues as stated for the soluble constructs; A TEV site follows the His6 tag; No Strep tag; also called EQ; EQ monomer; source: E. coli BL21 pRIL, purified (Ni-NTA)
B2: His6‐WT‐EQ‐2xStrep Dimer (covalently linked Msp1 dimer, soluble) (enzyme)
chain: DVESGPLSGKSRESKAKQSLQWEKLVKRSPALAEVTLDAYERTILSSIVTPDEINITFQDIGGLDPLISDLHESVIYPLMMPEVYSNSPLLQAPSGVLLYGPPGCGKTMLAKALAKESGANFISIRMSSIMDKWYGESNKIVDAMFSLANKLQPCIIFIDEIDSFLRERSSTDHEVTATLKAEFMTLWDGLLNNGRVMIIGATNRINDIDDAFLRRLPKRFLVSLPGSDQRYKILSVLLKDTKLDEDEFDLQLIADNTKGFSGSDLKELCREAALDAAKEYIKQKRQLIDSGTIDVNDTSSLKIRPLKTKDFTKKLRMDATSTLSSQPLDASGSGGSEASASAGAAGSGDGSGSGGSEGGTSGATDVESGPLSGKSRESKAKQSLQWEKLVKRSPALAEVTLDAYERTILSSIVTPDEINITFQDIGGLDPLISDLHESVIYPLMMPEVYSNSPLLQAPSGVLLYGPPGCGKTMLAKALAKESGANFISIRMSSIMDKWYGESNKIVDAMFSLANKLQPCIIFIDQIDSFLRERSSTDHEVTATLKAEFMTLWDGLLNNGRVMIIGATNRINDIDDAFLRRLPKRFLVSLPGSDQRYKILSVLLKDTKLDEDEFDLQLIADNTKGFSGSDLKELCREAALDAAKEYIKQKRQLIDSGTIDVNDTSSLKIRPLKTKDFTKKLRMDATSTLSSQPLD
notes: Msp1, subunit 1, wild type, deletion of the first 32 residues to remove the TMD; 35-residue flexible linker between the two subunits; Msp1, subunit 2, Walker B mutant E193Q, deletion of the first 32 residues to remove the TMD; Two Msp1 subunits on one chain; on SEC a mixture of the single chain (dimer) and the pseudohexamer (three chains); also called WT‐EQ dimer; source: E. coli BL21 pRIL, …
B3: His6‐EQ‐WT‐2xStrep Dimer (covalently linked Msp1 dimer, soluble) (enzyme)
chain: B2 chain with E161Q, Q526E
notes: Msp1, subunit 1, Walker B mutant E193Q, deletion of the first 32 residues to remove the TMD; 35-residue flexible linker between the two subunits; Msp1, subunit 2, wild type, deletion of the first 32 residues to remove the TMD; Two Msp1 subunits on one chain; on SEC a mixture of the single chain (dimer) and the pseudohexamer (three chains); also called EQ‐WT dimer; source: E. coli BL21 pRIL, …

Molecular target: the molecule itself
Experiment: SEC; analytical SEC, S200 Increase 3.2/300 GL, 20 mM Tris pH 7.5, 100 mM NaCl, 0.5 mM TCEP; 0.1 mL of 1.2 mg/mL (5 uM hexamer/pseudohexamer) Msp1 with 2 mM ATP, 2 mM MgCl2; 0.1 mL/min
In the case of B1, the “stoichiometry N” value is reported as 6.
With B2 the “stoichiometry N” value was 3.
In the case of B3, the “stoichiometry N” value is reported as 3.
